In publication PMC3169591:

Experiments:
[1] = target: Klebsiella pneumoniae PriB (full-length, 104-amino acid protein) (Klebsiella pneumoniae (strain MGH78578)); assay: SEC; each protein applied alone at approximately 3.4 g/l to a HiPrep HR 16/10 sephacryl S-100 column, 0.35 ml/min, 10 mM Tris-HCl pH 8, 10% glycerol, 0.5 M NaCl, 1 mM beta-mercaptoethanol; column calibrated with protein standards of known molecular weight
PriB = PriB (Klebsiella pneumoniae MGH78578, UniProt A6THB2 1-104); assay: fluorescence anisotropy; apparent Kd; 1 mM Mg2+; 20 mM Tris-HCl pH 8, 50 mM NaCl, 4% glycerol, 1 mM MgCl2, 1 mM beta-mercaptoethanol, 0.1 mg/ml BSA, 1 nM DNA, 25 C; conditions: protein: recombinant; tags: N-terminal His6 (pET28b); chain copies: 2; label: 3'-fluorescein; single strand
PriB, sequence (A6THB2 whole entry): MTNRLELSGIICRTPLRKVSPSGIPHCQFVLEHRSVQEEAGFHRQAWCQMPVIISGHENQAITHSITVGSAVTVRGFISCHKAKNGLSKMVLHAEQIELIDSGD

Klebsiella pneumoniae PriB (full-length, 104-amino acid protein) (natural protein), sequence (A6THB2 whole entry): as above

Row | Molecule | stoichiometry N [1] | Kd (PriB)
1 | Klebsiella pneumoniae PriB (full-length, 104-amino acid protein) (natural protein) | 2 | –
2 | TAGCAATGTAATCGT (ssDNA) [15-mer] | – | 50 ± 3 nM
3 | GCCGTGATCACCAATGCAGATTGACGAACCTTTGCTCCAGTAACC (ssDNA) [45-mer] | – | 62 ± 14 nM
4 | GCGTGGGTAATTGTGCTTCAATGGACTGAC (ssDNA) [30-mer] | – | 45 ± 7 nM
